These results are taken from PMC11234460, “In Silico Discovery of Stapled Peptide Inhibitor Targeting the Nur77‐PPARγ Interaction and Its Anti‐Breast‐Cancer Efficacy” (Advanced Science, 2024).

Test [1] addresses T1, LBD fragment of human Nur77 (residues 351–598) (human, UniProt P22736 351-598).
T1 construct: Labelled with a fluorescent dye for MST; amine-coupled to the chip for SPR; also called Nur77 LBD; Nur77-LBD; source: E. coli BL21(DE3), purified (Ni-NTA, Superdex 200 gel filtration)
Put plainly: MST; purified Nur77 LBD labelled with fluorescent dye; peptides 0.1-100 × 10^-6 M; PBST (0.05% Tween-20); 20 min at room temperature; Dianthus (NanoTemper). The settings on record: both partners purified.

For test [2], the target named is T1, LBD fragment of human Nur77 (residues …). Put plainly: MST. Conditions: both partners purified.
In test [3] the target is T2, SmallBit-Nur77 (luciferase SmallBit fusion of Nur77) (UniProt P22736 1-598).
T2 construct: Nur77; source: HEK293T, transiently transfected, in living cells
Put plainly: split reporter (BiFC, NanoBiT). The settings on record: one partner purified.

The target in test [4] is T1, LBD fragment of human Nur77 (residues …). Put plainly: SPR. The settings on record: both partners purified.

Bridges are numbered along the chain shown (N, C = ends). Where no end group is shown, it is not given here. [ ]: non-standard residue; d: D form. S5 = C=CCCC[C@](C)(N)C(=O)O

T1 sequence (P22736 351-598): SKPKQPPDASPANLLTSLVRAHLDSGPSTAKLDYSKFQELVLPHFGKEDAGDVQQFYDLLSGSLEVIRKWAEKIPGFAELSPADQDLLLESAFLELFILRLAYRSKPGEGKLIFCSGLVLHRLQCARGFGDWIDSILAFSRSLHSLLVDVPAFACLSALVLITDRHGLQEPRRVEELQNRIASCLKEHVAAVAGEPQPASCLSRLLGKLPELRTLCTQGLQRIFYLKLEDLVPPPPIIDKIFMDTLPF
T2 sequence (P22736 whole entry, the tested form may be a part): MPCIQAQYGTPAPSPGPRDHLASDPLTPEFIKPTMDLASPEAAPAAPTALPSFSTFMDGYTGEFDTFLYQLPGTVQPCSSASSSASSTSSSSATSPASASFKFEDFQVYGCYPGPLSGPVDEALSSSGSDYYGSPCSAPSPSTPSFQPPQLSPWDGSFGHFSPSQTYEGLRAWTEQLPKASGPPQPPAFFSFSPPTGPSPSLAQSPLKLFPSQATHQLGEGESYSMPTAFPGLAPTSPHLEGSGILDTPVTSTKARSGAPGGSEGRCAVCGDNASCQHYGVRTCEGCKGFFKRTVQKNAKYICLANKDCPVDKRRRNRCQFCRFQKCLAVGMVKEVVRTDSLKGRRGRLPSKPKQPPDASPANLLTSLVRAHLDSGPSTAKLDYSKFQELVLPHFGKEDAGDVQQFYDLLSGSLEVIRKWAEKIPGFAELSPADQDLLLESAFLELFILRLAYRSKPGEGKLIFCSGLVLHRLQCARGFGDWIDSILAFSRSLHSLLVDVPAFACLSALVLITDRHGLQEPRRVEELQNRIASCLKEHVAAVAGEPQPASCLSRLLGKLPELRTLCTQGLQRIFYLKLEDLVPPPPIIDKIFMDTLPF

Broadly, the Kd is the equilibrium constant for the complex coming apart. A high value points to weaker binding. In the case of CEGCKGF[S5]RRT[S5]RY-NH2 (staple 8-12; cysteine pairing not given here) [S-CY14 (stapled CY14)], in test [1], the Kd was determined as 3.96 µM.

B1: CY14 (CL14 with Leu169 mutated to Tyr) (peptide, UniProt P37231 156-169, looked up)
peptide: CEGCKGFFRRTIRY-NH2
modifications: cysteine pairing not given here
notes: PPARγ, residues Cys156-Leu169, with Leu169 mutated to Tyr; source: synthetic peptide (Fmoc SPPS on Rink Amide MBHA resin)
In test [1], B1 displayed a Kd of 8.7 µM.

B2: CL14, α-helix of PPARγ (residues Cys156-Leu169) (peptide, UniProt P37231 156-169, looked up)
peptide: CEGCKGFFRRTIRL-NH2
modifications: cysteine pairing not given here
notes: PPARγ, residues Cys156-Leu169 of the DBD; Made on Rink amide resin, so probably a C-terminal amide; source: synthetic peptide (Fmoc SPPS on Rink Amide MBHA resin)
With B2, the Kd in test [1] amounted to 27.2 µM.

B3: CH14 (CL14 with Leu169 mutated to His) (peptide, UniProt P37231 156-169, looked up)
peptide: CEGCKGFFRRTIRH
notes: PPARγ, residues Cys156-Leu169, with Leu169 mutated to His; source: synthetic peptide (Fmoc SPPS on Rink Amide MBHA resin)
With B3, the binding result in test [1] is given as “binds”.

B4: CF14 (CL14 with Leu169 mutated to Phe) (peptide, UniProt P37231 156-169, looked up)
peptide: CEGCKGFFRRTIRF
notes: PPARγ, residues Cys156-Leu169, with Leu169 mutated to Phe; source: synthetic peptide (Fmoc SPPS on Rink Amide MBHA resin)
On to B4, for which the binding result in test [1] is listed as “binds”.

B5: CW14 (CL14 with Leu169 mutated to Trp) (peptide, UniProt P37231 156-169, looked up)
peptide: CEGCKGFFRRTIRW
notes: PPARγ, residues Cys156-Leu169, with Leu169 mutated to Trp; source: synthetic peptide (Fmoc SPPS on Rink Amide MBHA resin)
B5: the binding result in test [1] was “binds”.
CEGCKGFFRRTIRYRKKRRQRRR-NH2 (cysteine pairing not given here) [T-CY14 (CY14 with the TAT sequence conjugated to its C-terminus)]: in test [2], the Kd came to 4.18 µM.

B6: SV16, α-helix of PPARγ (residues Ser186-Val201) (peptide, UniProt P37231 186-201, looked up)
peptide: SRNKCQYCRFQKCLAV-NH2
modifications: cysteine pairing not given here
notes: PPARγ, residues Ser186-Val201 of the DBD; Made on Rink amide resin, so probably a C-terminal amide; source: synthetic peptide (Fmoc SPPS on Rink Amide MBHA resin)
B6: in test [1], the Kd was 156 µM.
One may read the EC50 as the midpoint of the concentration-response curve. Higher therefore signals lower potency in that assay. The molecule H-CEGCKGF[S5]RRT[S5]RYYGRKKRRQRRR-NH2 (staple 8-12; cysteine pairing not given here) [ST-CY14 (stapled T-CY14)] came in with an EC50 in test [3] of 3.15 µM. The Kd in test [2] was determined as 0.668 µM; in test [4], 0.0325 µM.
